Results published in paper PMC11836289, “A humanized NOVA1 splicing factor alters mouse vocal communications”.

Tests used:
NOVA1wt = biological target: T1, NOVA1wt (UniProt Q9JKN6 1-507); assay: EMSA; 10 mM HEPES (pH not stated), 3 mM MgCl2, 150 mM NaCl, 5% glycerol, 0.1 mM DTT, 0.1 U/ul RNase OUT, 10 mg/ml yeast tRNA, 1 mg/ml poly dI-dC, 22 C, 60 min; protein 0.5-2 pmol, RNA 0.08 pmol per reaction; 8% native gel; details: protein: recombinant; tags: GST tag (N-term) cleaved by PreScission; pGEX6p1 remnant; label: 32P; hairpin
T1 sequence: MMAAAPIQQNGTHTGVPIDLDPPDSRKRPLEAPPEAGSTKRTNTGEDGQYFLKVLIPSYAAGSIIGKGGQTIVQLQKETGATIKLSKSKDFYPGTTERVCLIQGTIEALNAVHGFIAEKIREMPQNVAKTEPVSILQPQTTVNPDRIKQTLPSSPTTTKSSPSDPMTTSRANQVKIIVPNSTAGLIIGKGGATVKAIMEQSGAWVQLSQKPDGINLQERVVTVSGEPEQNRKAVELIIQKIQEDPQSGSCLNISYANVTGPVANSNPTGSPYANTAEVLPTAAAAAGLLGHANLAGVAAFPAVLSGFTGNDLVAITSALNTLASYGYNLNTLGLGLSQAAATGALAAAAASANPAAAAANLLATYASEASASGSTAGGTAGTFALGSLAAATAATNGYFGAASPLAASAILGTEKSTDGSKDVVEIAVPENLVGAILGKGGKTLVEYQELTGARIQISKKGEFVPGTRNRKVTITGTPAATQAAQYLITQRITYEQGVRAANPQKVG

NOVA1hu (humanized) = biological target: T2, NOVA1hu (humanized) (UniProt Q9JKN6 1-507, I197V); assay: EMSA; text prints 105.83 ± 8.3; figure and source data 105.3; 10 mM HEPES (pH not stated), 3 mM MgCl2, 150 mM NaCl, 5% glycerol, 0.1 mM DTT, 0.1 U/ul RNase OUT, 10 mg/ml yeast tRNA, 1 mg/ml poly dI-dC, 22 C, 60 min; protein 0.5-2 pmol, RNA 0.08 pmol per reaction; 8% native gel; details: protein: recombinant; tags: GST tag (N-term) cleaved by PreScission; pGEX6p1 remnant; label: 32P; hairpin
T2 sequence: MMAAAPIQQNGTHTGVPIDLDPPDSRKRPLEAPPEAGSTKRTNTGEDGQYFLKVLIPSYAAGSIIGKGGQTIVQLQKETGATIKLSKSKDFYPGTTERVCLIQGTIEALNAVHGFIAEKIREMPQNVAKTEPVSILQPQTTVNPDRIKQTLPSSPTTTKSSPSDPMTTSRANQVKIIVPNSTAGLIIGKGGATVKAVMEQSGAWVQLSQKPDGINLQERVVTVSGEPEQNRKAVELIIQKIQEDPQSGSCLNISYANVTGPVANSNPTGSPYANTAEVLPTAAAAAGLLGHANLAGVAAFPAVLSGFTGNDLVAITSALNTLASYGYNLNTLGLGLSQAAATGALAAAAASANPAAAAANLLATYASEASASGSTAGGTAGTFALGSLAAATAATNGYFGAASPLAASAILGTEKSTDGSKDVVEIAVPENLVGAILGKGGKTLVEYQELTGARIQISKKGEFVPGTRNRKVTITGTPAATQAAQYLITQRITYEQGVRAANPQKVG

B1: UCAU RNA probe (stem-loop) (structured_RNA)
RNA: CCUUAUCAUGCUGACUCACGUCAUUUCAUCUCAUCAAGGGAGUCAGUGGGAUA
NOVA1wt
  Kd: 105 ± 11.6 nM
NOVA1hu (humanized)
  Kd: 105 ± 8.3 nM
